Laboratory results taken from PMC7865074.

Each substance was assayed against full-length (FL) NS5 protein (wt PBM) of West Nile virus (West Nile virus) (assay: split reporter (BiFC, NanoBiT); N2H split-NanoLuc in HEK-293T cells; full-length NS5 with 257 single PDZ domains; read-out NLR with NS5 minus NLR with NS5ΔPBM, three experiments; hits > 0.25).

Chain of Partitioning defective 3 homolog, PDZ domain 1 (N2H construct) (Q8TEW0 271-359): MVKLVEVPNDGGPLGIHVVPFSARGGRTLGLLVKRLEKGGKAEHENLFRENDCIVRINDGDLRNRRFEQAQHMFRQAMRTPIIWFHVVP
Chain of Protein scribble homolog, PDZ domain 1 (N2H construct) (Q14160 728-815): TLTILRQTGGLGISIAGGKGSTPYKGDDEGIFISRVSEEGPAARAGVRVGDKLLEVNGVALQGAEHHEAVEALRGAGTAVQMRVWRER
Chain of Microtubule-associated serine/threonine-protein kinase 1, PDZ domain (N2H construct) (Q9Y2H9 967-1055): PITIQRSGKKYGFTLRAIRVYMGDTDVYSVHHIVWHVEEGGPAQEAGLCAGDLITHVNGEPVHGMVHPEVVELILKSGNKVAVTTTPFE
Chain of Microtubule-associated serine/threonine-protein kinase 2, PDZ domain (N2H construct) (Q6P0Q8 1104-1192): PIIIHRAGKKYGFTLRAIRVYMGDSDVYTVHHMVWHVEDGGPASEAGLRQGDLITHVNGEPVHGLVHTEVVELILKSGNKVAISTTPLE
Chain of Connector enhancer of kinase suppressor of ras 3, PDZ domain (N2H construct) (Q6P9H4 211-293): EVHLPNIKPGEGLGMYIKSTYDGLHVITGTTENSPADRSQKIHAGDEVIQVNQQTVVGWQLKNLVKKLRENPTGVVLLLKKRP
Chain of Protein scribble homolog, PDZ domain 4 (N2H construct) (Q14160 1100-1194): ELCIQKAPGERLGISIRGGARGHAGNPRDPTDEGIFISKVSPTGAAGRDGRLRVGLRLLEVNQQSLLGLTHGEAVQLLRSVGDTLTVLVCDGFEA
Chain of Connector enhancer of kinase suppressor of ras 3, full-length protein (ORF, N2H construct) (Q6P9H4 whole entry): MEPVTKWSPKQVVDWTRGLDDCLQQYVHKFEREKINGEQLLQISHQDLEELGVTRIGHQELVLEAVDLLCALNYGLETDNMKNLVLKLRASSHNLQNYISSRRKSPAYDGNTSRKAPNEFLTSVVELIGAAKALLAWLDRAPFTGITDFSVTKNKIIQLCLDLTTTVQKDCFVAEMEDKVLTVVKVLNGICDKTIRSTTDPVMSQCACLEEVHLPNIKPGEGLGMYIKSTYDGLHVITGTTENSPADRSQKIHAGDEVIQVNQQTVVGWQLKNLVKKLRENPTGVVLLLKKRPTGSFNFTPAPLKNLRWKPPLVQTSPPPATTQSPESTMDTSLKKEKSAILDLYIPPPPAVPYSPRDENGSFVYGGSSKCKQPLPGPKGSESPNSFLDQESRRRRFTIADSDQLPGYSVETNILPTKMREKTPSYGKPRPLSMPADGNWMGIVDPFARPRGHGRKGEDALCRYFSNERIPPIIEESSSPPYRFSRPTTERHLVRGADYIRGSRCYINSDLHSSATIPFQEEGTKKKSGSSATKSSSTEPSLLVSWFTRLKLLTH
Chain of FERM and PDZ domain-containing protein 4, PDZ domain (N2H construct) (Q14CM0 78-155): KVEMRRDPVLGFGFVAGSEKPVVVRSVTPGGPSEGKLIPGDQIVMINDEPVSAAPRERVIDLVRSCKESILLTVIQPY
Chain of Serine protease HTRA1, PDZ domain (N2H construct) (Q92743 365-467): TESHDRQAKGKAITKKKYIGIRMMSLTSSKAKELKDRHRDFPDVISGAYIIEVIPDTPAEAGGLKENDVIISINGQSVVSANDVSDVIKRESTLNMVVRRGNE

First: Connector enhancer of kinase suppressor of ras 3, PDZ domain (N2H construct) (from UniProt Q6P9H4 211-293) (domain or fragment)
Second: FERM and PDZ domain-containing protein 4, PDZ domain (N2H construct) (from UniProt Q14CM0 78-155) (domain or fragment)
The NLR(NS5) - NLR(NS5ΔPBM) of the first is higher: 6.27 for the first, < 0.25 for the second.

Going from “Golgi reassembly-stacking protein 2, PDZ domain (N2H construct) (domain or fragment)” to “Microtubule-associated serine/threonine-protein kinase 1, PDZ domain (N2H construct) (from UniProt Q9Y2H9 967-1055) (domain or fragment)”, the NLR(NS5) - NLR(NS5ΔPBM) falls from 1.32 to < 0.25.

Going from “Microtubule-associated serine/threonine-protein kinase 2, PDZ domain (N2H construct) (from UniProt Q6P0Q8 1104-1192) (domain or fragment)” to “Partitioning defective 3 homolog, PDZ domain 1 (N2H construct) (from UniProt Q8TEW0 271-359) (domain or fragment)”, the NLR(NS5) - NLR(NS5ΔPBM) rises from 0.87 to 1.24.

Going from “Protein scribble homolog, PDZ domain 1 (N2H construct) (from UniProt Q14160 728-815) (domain or fragment)” to “Protein scribble homolog, PDZ domain 4 (N2H construct) (from UniProt Q14160 1100-1194) (domain or fragment)”, the NLR(NS5) - NLR(NS5ΔPBM) falls from 0.76 to 0.56.

In the case of “Serine protease HTRA1, PDZ domain (N2H construct) (from UniProt Q92743 365-467) (domain or fragment)”, the NLR(NS5) - NLR(NS5ΔPBM) is reported as < 0.25.

Each substance was assayed against full-length (FL) NS5 protein (wt PBM) of West Nile virus (West Nile virus) (assay: split reporter (BiFC, NanoBiT); N2H split-NanoLuc in HEK-293T cells; full-length NS5 with 91 full-length human PDZ proteins (ORFs); read-out NLR; hits NLR > 1.35).

Compared with “Connector enhancer of kinase suppressor of ras 3, full-length protein (ORF, N2H construct) (from UniProt Q6P9H4 1-555) (natural protein)”, “Rho GTPase-activating protein 21, full-length protein (ORF, N2H construct) (from UniProt Q5T5U3 1-1958) (natural protein)” is higher in NLR: 1.91 for the first, 4.4 for the second.

“SH3 and multiple ankyrin repeat domains protein 2, full-length protein (ORF, N2H construct) (from UniProt Q9UPX8 1-1849) (natural protein)” gave an NLR of 4.38.

Target: full-length (FL) NS5 protein (wt PBM) of West Nile virus (West Nile virus)
Test: as above
Remark: another data set of the same source

With “Rho GTPase-activating protein 21, full-length protein (ORF, N2H construct) (from UniProt Q5T5U3 1-1958) (natural protein)” the NLR was 4.41.

What follows are substances tested against biotinylated WNV NS5 PBM peptide (West Nile virus) (assay: holdup assay (automated high-throughput chromatography); biotinylated NS5 PBM peptide as bait against 259 human PDZ domains expressed in E. coli; read-out binding intensity (BI), mean of replicates; BI threshold 0.2 for a significant interaction).

“Golgi reassembly-stacking protein 2, PDZ domain (holdup construct) (domain or fragment)” was tested, and the BI (holdup binding intensity) was < 0.15.
